In general, IC50 refers to the concentration that gives 50% inhibition.

Among the data in patent publication US20250243292A1 (published 2025) are IC50 values, retold here.

Changes are numbered by the printed parent chain.

T1: CD24-GST fusion protein
T1 chain: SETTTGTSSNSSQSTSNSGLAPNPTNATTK

B1: PP6230 (antibody, V domains shown)
VH: EVKFEESGGGLVQPGGSIKLSCAASGVTFSEAWMDWVRQSPEKGLEWVAEIRDKSTNYVTYYAESVKGRFTISRDDSKSRVYLQMNNLRTEDTGIYYCTGAMDYWGQGTSVTVSS
VL: DIVMTQTPLSLSVTIGQPASISCKSSQSLLYSNGKTYLNWLQQRPGQSPKRLIYQVSKLDPGIPDRFSGSGSETDFTLKISRVEAEDLGIYYCLQGTSYPWTFGGGTKLEIKR
B2: PP6233 (antibody, V domains shown)
VH: B1 VH with S55T, T56K
VL: B1 VL with L94M, T97A, Y99L
B3: PP6235 (antibody, V domains shown)
VH: B1 VH with T28A, E31G, S55T, T56K, I95V
VL: B1 VL with L94M, T97A, Y99L
B4: PP6232 (antibody, V domains shown)
VH: B1 VH with S55T, T56K
VL: B1 VL with I63T, L94M, Y99T
B5: PP6228 (antibody, V domains shown)
VH: B1 VH with T28A, E31G, S55T, T56K, I95V
VL: B1 VL
B6: PP6234 (antibody, V domains shown)
VH: B1 VH with S55T, T56K
VL: B1 VL with I63T, L94M, T97A, Y99V
B7: PP6226 (antibody, V domains shown)
VH: B1 VH with S55T, T56K
VL: B1 VL
B8: PP6231 (antibody, V domains shown)
VH: B1 VH with K54N, S55T
VL: B1 VL
B9: PP6372 (antibody, V domains shown)
VH: B1 VH with S55Q, T56N, N57E
VL: B1 VL with L94M, T97S, Y99L
B10: PP6387 (antibody, V domains shown)
VH: B1 VH with S55T, T56K, S79G
VL: B1 VL with L94M, T97S, Y99L
B11: PP6388 (antibody, V domains shown)
VH: B1 VH with S40T, K54R, S55E, N57K
VL: B1 VL with L94M, S98Y, Y99L
B12: PP6373 (antibody, V domains shown)
VH: B1 VH with S55P, T56N, N57S
VL: B1 VL with L94M, T97S, Y99L
B13: PP6368 (antibody, V domains shown)
VH: B1 VH with S55P, T56N, N57S
VL: B1 VL with L94M, S98Y, Y99L
B14: PP6369 (antibody, V domains shown)
VH: B1 VH with T28P, E31G, S55T, T56K
VL: B1 VL with L94M, S98Y, Y99L
B15: PP6370 (antibody, V domains shown)
VH: B1 VH with S55T, T56K, S79G
VL: B1 VL with L94M, S98Y, Y99L
B16: PP6371 (antibody, V domains shown)
VH: B1 VH with S40T, K54R, S55E, N57K
VL: B1 VL with L94M, Y99L
B17: PP6236 (antibody, V domains shown)
VH: B1 VH with K54N, S55T
VL: B1 VL with L94M, T97A, Y99L

The first assay deals with T1, CD24-GST fusion protein. Description: competitive ELISA. For orientation: An ELISA detects its analyte on a solid surface through an enzyme-linked reagent.
In the case of B1, the IC50 was 0.0589 mg/L.
Molecule B2 gave a half-inhibitory concentration (IC50) of 0.0372 mg/L.
Still for that read-out and setting: then B3, with 0.0411 mg/L.
On the same count and under the same terms, then B4, with 0.0713 mg/L; and B5, with 0.0888 mg/L.
Regarding B6, the IC50 was found to be 0.0426 mg/L.
B7: the IC50 was 0.0814 mg/L.
Same read-out and setting: then B8, with 0.0768 mg/L.

The next assay deals with T1, CD24-GST fusion protein. Description: competitive ELISA. The source holds these as a separate data set.
On to B3, for which the 50% inhibitory concentration (IC50) worked out at 0.0415 mg/L.
On the same count and under the same terms, then B9, with 0.0268 mg/L; and B10, with 0.0284 mg/L.
As to B11, the half-maximal inhibitory concentration (IC50) was found to be 0.0249 mg/L.
Still for that read-out and setting: then B12, with 0.0207 mg/L; and B7, with 0.0834 mg/L.

Another assay addresses T1, CD24-GST fusion protein. Description: competitive ELISA. The source holds these as a separate data set.
In turn, B13 gave an IC50 of 0.0299 mg/L.
The same measure, in the same setting: then B3, with 0.0419 mg/L.
On the same count and under the same terms, then B9, with 0.0269 mg/L; and B14, with 0.0611 mg/L; and B15, with 0.0642 mg/L.
The same measure, in the same setting: then B16, with 0.0345 mg/L; and B17, with 0.0336 mg/L; and B7, with 0.0856 mg/L.
